Results as given in paper PMC4729829, “BAP1/ASXL1 recruitment and activation for H2A deubiquitination” (Nature Communications, 2016).
Residue numbers refer to the chain shown, from its start. In names and notes the source's numbering stands.

Columns and labels:
[1] = target: BAP1/ASXL1^DEU complex (wild type) (human) (UniProt Q92560)
[2] = target: BRCA-1-associated protein 1 (BAP1), full length, wild type (human) (UniProt Q92560)
[3] = test system: BAP1 C91A;ASXL1 DEUBAD (ASXL1DEU); assay: stopped-flow fluorescence polarization; settings: 20 C, 20 nM NCP, histone H2A K119 mono-ubiquitinated by RING1B/BMI1, EMSA: 100 nM NCP, 4-12% Tris-glycine native gel, 4 C, FP: 25 mM HEPES pH 7.5, 150 mM NaCl, 0.05% Tween-20, 0.5 mM TCEP
[4] = target: BAP1/ASXL1DEU complex (human) (UniProt Q92560)
[5] = target: Nucleosome core particle mono-ubiquitinated at H2A K119 with N-terminally TAMRA-labeled ubiquitin (Xenopus | not stated) (UniProt P06897); assay: fluorescence polarisation; stopped-flow; 20 nM ^TAMRAUb-NCP mixed with various concentrations of inactive (C91A) BAP1 or BAP1/ASXL1^DEU; 25 mM HEPES pH 7.5, 150 mM NaCl, 0.05% Tween-20, 0.5 mM TCEP; 20 °C; kobs against concentration by linear regression
[6] = target: T1, full-length BAP1 (BRCA-1-associated protein 1) (human, UniProt Q92560 1-729); assay: ITC; VP-ITC at 25 °C; 25 mM HEPES pH 7.5, 150 mM NaCl, 10% glycerol, 0.5 mM TCEP; 30 μM ASXL1DEU (syringe) titrated into 13 μM BAP1 variant (cell), 10 or 5 μl injections; one-site binding model; settings: both partners purified
T1 construct: BAP1, uniprot Q92560, full length; Vector pFastBac-NKI-his-3C-LIC; no removal of the tag is described; also called FL BAP1; WT BAP1; source: Sf9 cells, purified (Ni2+ chelating sepharose, Poros HQ anion exchange, Superose 6 SEC)
T1 sequence (looked up): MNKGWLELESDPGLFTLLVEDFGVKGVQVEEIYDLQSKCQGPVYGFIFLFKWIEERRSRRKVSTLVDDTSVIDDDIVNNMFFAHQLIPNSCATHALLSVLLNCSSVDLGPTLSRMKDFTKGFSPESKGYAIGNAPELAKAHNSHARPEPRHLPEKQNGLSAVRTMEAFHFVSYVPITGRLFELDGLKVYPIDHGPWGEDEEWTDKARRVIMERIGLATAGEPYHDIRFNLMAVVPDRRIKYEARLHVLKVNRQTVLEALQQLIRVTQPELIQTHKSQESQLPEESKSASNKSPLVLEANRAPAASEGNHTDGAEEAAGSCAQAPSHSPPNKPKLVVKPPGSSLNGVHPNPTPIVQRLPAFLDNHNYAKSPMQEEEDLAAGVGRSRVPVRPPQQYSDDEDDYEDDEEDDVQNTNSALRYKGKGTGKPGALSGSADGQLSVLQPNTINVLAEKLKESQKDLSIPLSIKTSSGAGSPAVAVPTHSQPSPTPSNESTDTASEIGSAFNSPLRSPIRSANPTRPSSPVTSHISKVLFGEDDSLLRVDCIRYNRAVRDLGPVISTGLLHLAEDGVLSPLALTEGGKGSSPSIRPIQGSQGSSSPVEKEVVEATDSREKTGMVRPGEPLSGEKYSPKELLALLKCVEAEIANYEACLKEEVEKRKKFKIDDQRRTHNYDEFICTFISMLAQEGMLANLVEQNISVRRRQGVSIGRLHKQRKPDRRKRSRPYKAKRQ

[7] = target: T2, BAP1 1-710 (lacks the C-terminal extension) (human, UniProt Q92560 1-710); assay: as above; settings: both partners purified
T2 construct: BAP1, uniprot Q92560, residues 1-710; Vector pFastBac-NKI-his-3C-LIC; source: Sf9 cells, purified (Ni2+ chelating sepharose, Poros HQ anion exchange, Superose 6 SEC)
T2 sequence (looked up): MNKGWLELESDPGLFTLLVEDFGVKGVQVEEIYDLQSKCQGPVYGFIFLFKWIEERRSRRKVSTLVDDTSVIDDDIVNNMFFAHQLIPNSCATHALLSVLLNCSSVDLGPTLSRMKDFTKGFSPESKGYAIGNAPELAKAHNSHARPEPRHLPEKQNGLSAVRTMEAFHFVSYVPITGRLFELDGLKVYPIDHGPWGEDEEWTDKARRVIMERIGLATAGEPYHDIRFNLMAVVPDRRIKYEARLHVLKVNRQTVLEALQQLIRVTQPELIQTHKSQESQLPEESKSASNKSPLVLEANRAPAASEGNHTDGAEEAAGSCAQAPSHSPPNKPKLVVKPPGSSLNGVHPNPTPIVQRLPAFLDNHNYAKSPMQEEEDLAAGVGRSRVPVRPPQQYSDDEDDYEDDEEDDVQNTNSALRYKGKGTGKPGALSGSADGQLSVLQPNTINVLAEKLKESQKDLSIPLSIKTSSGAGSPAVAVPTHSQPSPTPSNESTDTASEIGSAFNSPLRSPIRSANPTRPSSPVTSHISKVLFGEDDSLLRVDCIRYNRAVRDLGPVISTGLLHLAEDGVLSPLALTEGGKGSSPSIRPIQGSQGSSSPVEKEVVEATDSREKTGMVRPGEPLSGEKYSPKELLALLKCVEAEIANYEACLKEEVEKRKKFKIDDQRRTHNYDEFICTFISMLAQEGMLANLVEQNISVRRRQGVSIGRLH

[8] = target: T3, BRCA-1-associated protein 1 (BAP1), full length, wild type (human, UniProt Q92560 1-729); assay: SEC-MALS; SEC-MALLS, miniDawn detector; Superdex S75 10/30 (ASXL1^DEU), Superose 6 10/30 (BAP1) or Superdex S200 10/30 (BAP1/ASXL1^DEU); 10 mM HEPES pH 7.5, 150 mM NaCl, 0.5 mM TCEP; 4 °C; settings: both partners purified
T3 construct: BAP1 (BRCA-1-associated protein 1), human, UniProt Q92560, full length; Cloned into pFastBac-NKI-his-3C-LIC; In isolation it forms dimers and higher order oligomers (SEC-MALLS); also called WT BAP1; full-length BAP1; source: Sf9 cells, purified (Ni2+ chelating sepharose, Poros HQ anion exchange, Superose 6 SEC)
T3 sequence (looked up): T1 sequence (looked up)

[9] = target: T3, BRCA-1-associated protein 1 (BAP1), …; assay: ITC; 30 μM ASXL1^DEU in the syringe titrated (10 or 5 μl injections) into 13 μM BAP1 variant in the cell; 25 °C; 25 mM HEPES pH 7.5, 150 mM NaCl, 10% glycerol, 0.5 mM TCEP; one-site binding model; settings: both partners purified
[10] = target: T4, full-length BAP1 (BRCA-1-associated protein 1) (human), Q92560; assay: SEC-MALS; miniDawn detector in line with Superdex S75 10/30 (ASXL1DEU), Superose 6 10/30 (BAP1) or Superdex S200 10/30 (BAP1/ASXL1DEU); 10 mM HEPES pH 7.5, 150 mM NaCl, 0.5 mM TCEP, 4 °C; molecular weights from the refractive index signal; settings: remark: other sources report otherwise
T4 chain: T1 sequence (looked up)

Non-hydrolyzable H2A-peptide ubiquitin conjugate (ubiquitin linked at the K119 position) (from UniProt P0CG48 1-75)
IC50 of inhibition of Ub-AMC hydrolysis by the BAP1/ASXL1^DEU complex, against BAP1 alone (fold lower than BAP1 alone) [1]: > 10 | IC50 of inhibition of Ub-AMC hydrolysis by BAP1 (500 pM enzyme, 2 μM Ub-AMC, conjugate up to 200 μM) [2]: 45 μM

TAMRA-Ub-NCP (H2A K119ub, Widom 601 167 bp)
Kd [3]: 4000 nM

non-hydrolyzable H2A-peptide ubiquitin conjugate (H2A-K119) (from UniProt P0CG47 1-75)
Supplementary Table 3: IC50 of the non-hydrolyzable H2A ubiquitin conjugate for inhibition of Ub-AMC hydrolysis by BAP1/ASXL1DEU [4]: 3300 nM

BAP1 (C91A)/ASXL1^DEU complex (from UniProt Q92560 1-729; Q8IXJ9 238-390)
Kd [5]: 4000 nM

B1: ASXL1 DEUBAD domain (aa 238-390) (domain or fragment, human, UniProt Q8IXJ9 238-390, looked up)
chain: ATGQMKRNRGEEIDFETPGSILVNTNLRALINSRTFHALPSHFQQQLLFLLPEVDRQVGTDGLLRLSSSALNNEFFTHAAQSWRERLADGEFTHEMQVRIRQEMEKEKKVEQWKEKFFEDYYGQKLGLTKEESLQQNVGQEEAEIKSGLCVPG
notes: ASXL1, uniprot Q8IXJ9, DEUBAD domain, residues 238-390; Vector pET-NKI-his-3C-LIC; also called His-ASXL1DEU; source: E. coli, purified (Ni2+ chelating sepharose, Poros HQ anion exchange, Superdex 75 SEC)
stoichiometry N [6]: 0.37 ± 0.002 | Kd [7]: 5 ± 0.16 nM | stoichiometry N [7]: 0.27 ± 0.001

B2: ASXL1 DEUBAD domain (aa 238-390) (domain or fragment, human, UniProt Q8IXJ9 238-390, looked up)
chain: B1 chain
notes: ASXL1 (additional sexcombs like 1), human, UniProt Q8IXJ9, DEUBAD domain, aa 238-390; Cloned into pET-NKI-his-3C-LIC; printed as His-ASXL1^DEU; Monomeric in SEC-MALLS; also called His-ASXL1^DEU; WT ASXL1^DEU; source: E. coli, purified (Ni2+ chelating sepharose, Poros HQ anion exchange, Superdex 75 SEC)
stoichiometry N [8]: 2 BAP1 molecules per ASXL1^DEU molecule | Kd [9]: 18 nM | stoichiometry N [9]: 0.25 to 0.5

B3: ASXL1 DEUBAD domain (aa 238-390) N310A/E311K/F312A (domain or fragment, human, UniProt Q8IXJ9 238-390, looked up)
chain: B1 chain with N73A, E74K, F75A
notes: ASXL1, uniprot Q8IXJ9, DEUBAD domain, residues 238-390, triple mutant of the NEF region; Variant of Dm4; also called ASXL1NEF DEU; NEF; source: E. coli, purified (Ni2+ chelating sepharose, Poros HQ anion exchange, Superdex 75 SEC)
Kd [6]: 46 ± 0.14 nM | stoichiometry N [6]: 0.32 ± 0.003

B4: ASXL1 DEUBAD domain triple mutant N310A/E311K/F312A (domain or fragment, human, UniProt Q8IXJ9 238-390, looked up)
chain: B1 chain with N73A, E74K, F75A
notes: ASXL1, human, UniProt Q8IXJ9, DEUBAD domain, aa 238-390, with N310A, E311K and F312A; Variant of m2; also called ASXL1NEF^DEU; NEF; source: E. coli, purified (Ni2+ chelating sepharose, Poros HQ anion exchange, Superdex 75 SEC)
Kd [9]: 45 nM

B5: full-length BAP1 (BRCA-1-associated protein 1), Q92560 1-729 (enzyme)
chain: T1 sequence (looked up)
stoichiometry N [10]: 2
